Blank lines part the entries; values can stand above or below the binder they belong to.
Key:
[1] = target: T1, purified intact rat GluN1a-GluN2B NMDA receptor (Rattus norvegicus, UniProt P35439;Q00960); assay: ELISA; 96-well MaxiSorp plates covered by the GluN1a-GluN2B NMDAR proteins, in the presence of 0.005% LMNG (methods; 0.01% in the results); state of the IgG not told
T1 construct: rat GluN1a (GluN1-1a splice variant, without the exon 5-encoded motif); called intact; rat GluN2B; the immunogen and the ELISA antigen

[2] = target: T2, intact GluN1b-GluN2B NMDA receptor (Rattus norvegicus, strain); assay: cryo-EM structure; receptor mixed with Fab at 1:3 (w:w), purified on Superose 6; 1 mM glycine and 1 mM glutamate; 0.002% LMNG, 0.1% digitonin; settings: both partners purified
T2 construct: called intact; density seen for ATD, LBD and TMD; rat GluN2B; heterotetramer; Also used here for the functional rows on receptors expressed in oocytes or HEK293 cells from wild-type rat cRNA or cDNA; also called GluN1-1b-GluN2B; GluN1b-2B; source: Sf9 insect cells (EarlyBac), solubilised in 0.5% LMNG, purified (Strep-Tactin Sepharose, Superose 6); copies: 2 + 2

- binding result [1]: binds
B1: IgG2, mouse monoclonal antibody against the GluN1-GluN2B NMDA receptor (antibody, V domains shown)
VH: DVKLQESGGGLVQPGGSLKLSCAASGFTFSSYTMSWVRQTPEKRLEWVAYISNGGGGTYYPDTVKGRFTISRDNAKNTLYLQMNSLKEDTAMYYCARPSRGGSSYWYFDVWGAGTTVTVSS
VL: DIQMTQSPSSLSASLGGKVTITCKASQDINKYIAWYQHKPGKGPRLLIHYTSSLQPGIPSRFSGSGSGRDYSFSISNLEPEDIATYYCLQYDNLYTFGGGTKLEIK
notes: the Fab part of the heavy chain is in the crystal structure of Fab2 (PDB 7TE4) and in the cryo-EM models; the light chain is in the crystal structure of Fab2 (PDB 7TE4) and in the cryo-EM models; mouse immunoglobulin-gamma; raised against purified intact rat GluN1a-GluN2B NMDAR; source: hybridoma cell culture supernatant, purified (rProtein-A Sepharose)

- stoichiometry N [2]: 2 Fab2 per heterotetrameric channel
B2: Fab2, antigen-binding fragment of IgG2 (Fab, V domains shown)
VH: B1 VH
VL: B1 VL
notes: heavy chain of the crystal structure of Fab2 (PDB 7TE4); as the Fab part of the heavy chain of m1; light chain of the crystal structure of Fab2 (PDB 7TE4); as the light chain of m1; source: papain proteolysis of purified IgG2, Fc removed on rProtein-A Sepharose

- binding result [1]: binds
B3: IgG5, mouse monoclonal antibody against the GluN1-GluN2B NMDA receptor (antibody, V domains shown)
VH: DVKLQESGGGSVKLGGSLKLSCVVSGFTFSTYYMSWVRQTPEKRLELVAVINSNGGNTYYPDNVKGRFTISRDNAENTLYLQMSSLKSEDTALYYCARRDYDGFAMDYWGQGTSVTVSS
VL: DIQLTQSPASLAVSLGQRATISCRASQSVSTSRYSYMHWYQHKPGQPPKLLIKYASNLESGVPARFSGSGSGTDFTLNIHPVEEEDTATYYCQHSWENPYTFGGGTKLEIK
notes: the Fab part of the heavy chain is in the crystal structure of GluN1b-GluN2B ATD-Fab5 (PDB 7TE6) and in the cryo-EM models; the light chain is in the crystal structure of GluN1b-GluN2B ATD-Fab5 (PDB 7TE6) and in the cryo-EM models; mouse immunoglobulin-gamma; source: hybridoma cell culture supernatant, purified (rProtein-A Sepharose)

From PMC8854693, “Development and characterization of functional antibodies targeting NMDA receptors” (Nature Communications, 2022)
